Laboratory results as given in paper PMC8906176.

Target: C4-AM2 monobody
Test: BLI

“SARS-CoV-2 S protein receptor-binding domain, Alpha variant (B.1.1.7) (from UniProt P0DTC2) (domain or fragment)” gave a Kd of less than 0.01 nM.
Substance “SARS-CoV-2 S protein receptor-binding domain, Beta variant (B.1.351) (from UniProt P0DTC2) (domain or fragment)” has a Kd of 6.3 nM.
